Test results as given in patent publication US20100183520A1.

Biological target: UNC5B netrin-1 receptor on mouse leukocytes / CD4+ T cells (mouse) (UniProt Q8K1S3)
Assay: cell-based or functional assay

UniProt Q8K1S3, sequence (Q8K1S3 27-945): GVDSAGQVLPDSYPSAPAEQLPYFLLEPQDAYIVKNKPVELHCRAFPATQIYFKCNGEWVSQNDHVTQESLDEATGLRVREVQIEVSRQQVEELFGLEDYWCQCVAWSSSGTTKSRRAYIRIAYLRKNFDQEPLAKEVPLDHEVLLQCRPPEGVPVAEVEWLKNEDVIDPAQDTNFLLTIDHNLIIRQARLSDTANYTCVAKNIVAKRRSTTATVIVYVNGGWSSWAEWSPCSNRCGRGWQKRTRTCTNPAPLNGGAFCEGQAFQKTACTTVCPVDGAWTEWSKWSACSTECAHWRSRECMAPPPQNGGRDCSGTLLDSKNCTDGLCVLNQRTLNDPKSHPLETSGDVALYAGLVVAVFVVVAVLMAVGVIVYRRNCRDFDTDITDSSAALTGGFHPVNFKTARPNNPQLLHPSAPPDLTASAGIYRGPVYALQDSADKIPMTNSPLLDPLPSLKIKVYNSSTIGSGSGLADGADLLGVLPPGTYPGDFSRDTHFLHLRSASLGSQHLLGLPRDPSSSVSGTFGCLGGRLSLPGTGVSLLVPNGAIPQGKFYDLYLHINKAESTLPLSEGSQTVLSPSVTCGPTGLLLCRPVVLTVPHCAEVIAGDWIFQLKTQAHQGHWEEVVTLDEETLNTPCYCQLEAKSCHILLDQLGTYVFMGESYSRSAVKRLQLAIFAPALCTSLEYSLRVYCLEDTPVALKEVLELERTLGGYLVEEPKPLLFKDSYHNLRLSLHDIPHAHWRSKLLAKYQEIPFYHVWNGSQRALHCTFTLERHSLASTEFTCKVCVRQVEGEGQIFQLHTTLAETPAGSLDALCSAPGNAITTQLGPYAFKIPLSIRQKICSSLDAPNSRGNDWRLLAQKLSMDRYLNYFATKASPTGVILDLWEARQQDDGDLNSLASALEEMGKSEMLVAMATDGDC

inhibition of anti-CD3 stimulated cytokine production in CD4+CD25- T cells: netrin-1 concentration with maximal inhibition: 500 ng/mL
inhibition of anti-CD3 stimulated cytokine production in CD4+CD25- T cells: netrin-1 concentration with minimal effect: 100 ng/mL
Substance: recombinant netrin-1 (R&D Systems) (ligand)
